Substrate: Nc1ncnc2c1ncn2[C@@H]1O[C@H](COP(=O)(O)OP(=O)(O)OP(=O)(O)O)[C@@H](O)[C@H]1O
Experiment: purified protein, by the assay type

Protein | Km (other: ALK G1202R) [µM] | Km (other: ALK S1206Y) [µM]
ALK (V1058-P1620) G1202R (Homo sapiens; G1202R) (protein) VYRRKHQELQAMQMELQSPEYKLSKLRTSTIMTDYNPNYCFAGKTSSISDLKEVPRKNITLIRGLGHGAFGEVYEGQVSGMPNDPSPLQVAVKTLPEVCSEQDELDFLMEALIISKFNHQNIVRCIGVSLQSLPRFILLELMAGRDLKSFLRETRPRPSQPSSLAMLDLLHVARDIACGCQYLEENHFIHRDIAARNCLLTCPGPGRVAKIGDFGMARDIYRASYYRKGGCAMLPVKWMPPEAFMEGIFTSKTDTWSFGVLLWEIFSLGYMPYPSKSNQEVLEFVTSGGRMDPPKNCPGPVYRIMTQCWQHQPEDRPNFAIILERIEYCTQDPDVINTALPIEYGPLVEEEEKVPVRPKDPEGVPPLLVSQQAKREEERSPAAPPPLPTTSSGKAAKKPTAAEISVRVPRGPAVEGGHVNMAFSQSNPPSELHKVHGSRNKPTSLWNPTYGSWFTEKPTKKNNPIAKKEPHDRGNLGLEGSCTVPPNVATGRLPGASLLLEPSSLTANMKEVPLFRLRHFPCGNVNYGYQQQGLPLEAATAPGAGHYEDTILKSKNSMNQPGP | 23 | 
ALK (V1058-P1620) S1206Y (Homo sapiens; S1206Y) (protein) VYRRKHQELQAMQMELQSPEYKLSKLRTSTIMTDYNPNYCFAGKTSSISDLKEVPRKNITLIRGLGHGAFGEVYEGQVSGMPNDPSPLQVAVKTLPEVCSEQDELDFLMEALIISKFNHQNIVRCIGVSLQSLPRFILLELMAGGDLKYFLRETRPRPSQPSSLAMLDLLHVARDIACGCQYLEENHFIHRDIAARNCLLTCPGPGRVAKIGDFGMARDIYRASYYRKGGCAMLPVKWMPPEAFMEGIFTSKTDTWSFGVLLWEIFSLGYMPYPSKSNQEVLEFVTSGGRMDPPKNCPGPVYRIMTQCWQHQPEDRPNFAIILERIEYCTQDPDVINTALPIEYGPLVEEEEKVPVRPKDPEGVPPLLVSQQAKREEERSPAAPPPLPTTSSGKAAKKPTAAEISVRVPRGPAVEGGHVNMAFSQSNPPSELHKVHGSRNKPTSLWNPTYGSWFTEKPTKKNNPIAKKEPHDRGNLGLEGSCTVPPNVATGRLPGASLLLEPSSLTANMKEVPLFRLRHFPCGNVNYGYQQQGLPLEAATAPGAGHYEDTILKSKNSMNQPGP |  | 20

Reference: publication PMC3385512
